A short description of the series: yeast display, Sf9 membrane polyspecificity reagent, FACS + sequencing; frameworks hold sequencing errors. An outline of the steps: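 A nanobody's polyreactivity label depends on the gate it was sorted from. Yeast display cells were stained with 10% biotinylated, detergent-solubilized Sf9 membrane reagent for 1 hour at 4 °C, enriched on streptavidin microbeads and sorted by FACS. The low and high (top ~1%) gates were set on anti-HA fluorescence for expression and streptavidin fluorescence for reagent binding.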
With “QVQLVESGGGLVQAGGSLRLSCAASGIIFYINAMGWYRQAPGKERELFADISSGDRTYYADSVKGRFTISRDNAKNTVYLQMNSLKPEDTAVYYCAAESYSGFVAGHTSLDDYWGQGTQVTVSS”, the “polyreactivity (PSR sort gate)” value is listed as “low polyreactivity”.

Consider “QVHLVESGGGLVQAGGSLRLSCAASGSISVWYVIVWYRQAPGKERELVAAITRSGGSTFYADSVKGRFTISRDNAKNTVYLQMNSLKPEDTAVYYCAASFRDDFPQRLDYWGQGTQVTVSS”, for which the “polyreactivity (PSR sort gate)” value is “low polyreactivity”. The result for “QVQLVESGGGLVQAGGSLRLSCAASGRIFGDNTMGWYRQAPGKERELVAAISFTGGSTYYADSVKGRFSISRDNAKNTVYLQMNSLKPEDTAVYYCNADWVSTWGYDYWGQGTQVTVSS” reads “low polyreactivity”. With “QVQLVESGGCLVQAGGSHRLSCAASGFIFYRYAMGWYRQAPGKERELVAAISGSGGRTYYADSVKGRFTISRDNAKNTVYLQMNSLKPEDTAVYYCAADKQAYVTDDYWGQGTQVTVSS”, the “polyreactivity (PSR sort gate)” value is reported as “high polyreactivity”. Under “QVQLVESGGGLVQAGVSLRLSCAASGNTFRINTKLCYRQAPGKERDLVATITRRGGSTYYADSVKGRFTISRDNAMNTVYLQMNSLNPEDSAVYYCAARVRGTGVYGGYNYWGQGTQVTVSS” stands “high polyreactivity”; under “QVQLVESGGGLVHAGGSLRLSCAASGILFGYYAIGWYRQAPGKERELVAAITSGSSTDYADSVKGRFTISRDNAKNTFYLQMNSLKPEDTAVYYCNAVTSASTYTFPFDYWGQGTQVTVSS”, “low polyreactivity”. The result for “QVQLVESGGGLVQAGGSLRLSCAASGLIIRWNAMGWYRQAPAKERELVAAINRGGSTYYADSVKGRFTISRDNAKNTVYLQMTSLKPEDTAVYYCAVGYAHSSNRRYYYKKTHGYWGQGTQVTVSS” reads “low polyreactivity”. The result for “QVQLVESGGGLVQAGGSLRLSCAASGITFKFYAMGWYRQAPGKEREWVATISWSGGITYYADSVKGRFTISRDNAKNTVYLQMNSLKPEDTAVYYCAADGPFTPRYYYWGQGTQVTVSS” reads “low polyreactivity”. Turning to “QVQLVESGGGLVQAGGSLRLSCAASGYIFGYNTMGWYRQAPGKERELVAAISKSGGRTYYADSVKGRFTISRDNAKNTVYLQMNSLKPEDTAVYYCAADGWSGKLRYTRYDYWGQGTQVTVSS”, the “polyreactivity (PSR sort gate)” value is listed as “high polyreactivity”. The result for “QVQLVESGGVLVQAGGSLRLSCAASGRIFQTYAMGWYRQAPGKERELVAAISSRGRTYYADSVKGRFTISRDNAKITVYLQMNSLKREDTAVYYCAARDWSHRPRGYDYWGQGTQVTVSS” reads “high polyreactivity”; that for “QVQLVESGGGLVQAGGSLRLSCAASGRIFRNNAMGWYRQAPGKERELVAAITWSGGSTYYADSVKGRFTISRDNAKNTVYLQMNSLKPEDTAVYYCNAGRGYKYSYTYDYWGQGTQVTVSS”, “low polyreactivity”. Regarding “QVQLVESGGGLVQAGGSLRLSCAASGFIFAEYAMGWYRQAPWKERELVAAITRSGGRTYYADSVKGRFTISRDNAKNTVYLQMNSLKPEDTAVYYCAAGLGYPRLYYCGQGTQVTVSS”, the “polyreactivity (PSR sort gate)” value is recorded as “high polyreactivity”. Under “QVQLVESGGGLVQAGGSLRLTCAASGRNFSQNAMGWYRQAPGKERELVAAISVTGGRTYYADSVKGRFTISRDNAKNTVYLQMNSLKPEDTAVYYCAKRTRSPGYYYWGQGTQVTVSS” stands “high polyreactivity”. In the case of “QVQLVESGGGLVQAGGSLRLSCAASGSIIVRYAMGWYRQAPGKERELVATITFRDTSTYYADSVKGRFTISRDNAKNTVYLQMNSLKPEDTAVYYCAAVRADLWDIARYDYWGQGTQVTVSS”, the “polyreactivity (PSR sort gate)” value was “low polyreactivity”. “QVQLVESGGGLVQAGGSLRLTCAASGSIFDFYAMGRYRQAPGQERELVAAISGSGGSTYYADSVKGRFTISRDNGKNTVYFQMDSLKPEDTAVYYCSYYYWGQGTQVNVSS”: the “polyreactivity (PSR sort gate)” value is “low polyreactivity”. The result for “QVQLVESGGGLVQAGGSLRLSCAASGRIFYINAMGWYRQAPGKEMELVAAITGSVGSTYYADSVKGRFTISRDNAKNTVYLLMNSQKPEDTAVYYCAASDQPYNGGDGDYWGQGTQVTVSS” reads “low polyreactivity”.

Consider “QVQHVESGGGLVQAGGSLRISCAASGSILDGYAMGWYRQAPGKEREFVAAITWSGGRTYYADSVKGRFTISRDNAMNTVYLQMNSLKPEDTAVYYCIAVTGSWRYDFWGQGSQVTVSS”, for which the “polyreactivity (PSR sort gate)” value is “high polyreactivity”. Under “QVQLVESGGGLVQAVGSLRLSCAASGRTFYYYAMGWYRQAPGKERELVASITYYADSVKGRFTISRDNAKNTVYLQMKSLKPEDTAVYYCAARANSYHSFTSHYDYWGQGTQVSVSS” stands “low polyreactivity”; under “QVQLVESGGGLVQAGGSLRLSCAASGSTFVVNTMGWYRQAPGKERELVAAITRRTTSTYYADSVKGRFTISRDNAKNTVYLQMNSLKPEDTAVYYCAAERRHYSTTYYYWGQGTQVTVSS”, “high polyreactivity”; under “QVQLVESGGGLVQAGGSLRLSCAASGLTFDSSAMGWYRQAPGTERELVAAISFSGGRTYYADSVKGRFTISRDTAKNTVYLQMNSLKPDDTAVYYCAAQLRYKYDYWGHGTQVTVSS”, “high polyreactivity”. Under “QDQLVESGGGLVQAGGSLRLSCAASRNIFYINTMGWYIQAPGKERALVAAIDASDGTTYYADSVKGRFTISRDNAKNTVYLQMNSVKPEDTAVYYCATRRGYDSVYYFYTLWYYYWGQGTQVTVSS” stands “low polyreactivity”; under “QVQLVESGGGLVQEGGSLRLSCAASGSTFHGYAMGWYRQAPGKERELVASISWSGGRTYYADSVKGRFTISRDNAKNTVYLQMNSMKPEDTAVYYCAAETGGLGGDYLGQGTQVTVSS”, “low polyreactivity”.

As for “QVQLVESGGGLVQAGGSLRLSCAASGFTFYSYAMGWYRQAPGKERELVAAISWSGTRTYYADSVKGRFTISRDNGKNTVYLQMTSLKPEVTAVYYCAGRGYRYGYGYWGQGTQVTVSS”, the “polyreactivity (PSR sort gate)” value is recorded as “high polyreactivity”. Turning to “QVQLVESGGGLVQAGGSLRLSCAPSGFIYSKYVIGWNRPAPGKERELVAAITRSGSSTYYADSVKGRFTISRDNAKNTDYLQMNSLKPEDTAVYYCAADGGYYDDDYWGQGTQVTVSS”, the “polyreactivity (PSR sort gate)” value was “high polyreactivity”.

Turning to “QVQLVESGGGLVQAGGSLRLSCAASGSTFTVYAMGWYRQAPGKEREFVAAITRRGGNTYYADSVKGRFTISRDNAKNTVYLQMNSLKPEDTAVYYCNADSPLNAYYGGRELDYWGQGTQVTVSS”, the “polyreactivity (PSR sort gate)” value is reported as “high polyreactivity”. The result for “QVQLVESGGGLVQAGGSLRLSCAASGRNFNKNAMGWYRQAPGKERELVAAITDRGGSTNYADSVKGRFTISRDNAKNTVYLQMNSLKPEDTAVYYCNTGRKLVYRYPGYDYWGQGTQVTVSS” reads “low polyreactivity”; that for “QVQLVESGGGLVQAGGSLRLSCAASGFTFSYYAMGWYRQAPRKERELVAAISGGGGTNYADSVKGRFTISRDNAKNTVYLQMNSLKPEDTAVYYCATDQFTQPSHRRDYWGQGTQVTVSS”, “low polyreactivity”; that for “QVQLVESGGGLVQAGGSLRLSCAASGSIFWSNAMGWYRQAPGKEREFVAAITWSGDNTYYADSVKGRFTISRDNAKNTVYLQMNSLKPEDTAVYYCAASGDYYWDEGDYWGQGTQVTVSS”, “low polyreactivity”.

For “QVQLVESGGGLVQAGRSLRLSCAASGSIFPGNAMGWYRQAPGKERELVASINWSGGSTYYADSVKGRFTISRDNAKNTVYLQMNSLKPEDTAVYYCNADPGYYDYDYWGQVTQVTVSS”, the “polyreactivity (PSR sort gate)” value is reported as “low polyreactivity”. For the sequence “QVQLVESGGGLVQAGGSLRLSCAASGRIFALYAMGWYRQAPGKERELVASINGSSGSTYYADSVKGRFTISRDTAKNTVYLQMNSLKPEDTAVYYCAKKYYGVKFYWGQGTQVTVSS”, the “polyreactivity (PSR sort gate)” value is recorded as “low polyreactivity”. Under “QVQLVESGGGLVQAGGSLRLSCAASGFIFSPYAMGGYRHEPGKEREFVAAITSRVGSTYYADSVKGRFTISRDNAKNTVYLQMNSLKPEDTAVYYCAATTDGLVGRPRYDYWGQGTQVTVSS” stands “low polyreactivity”; under “QVQLVESGGGLVQAGGSLRLSCAASGRTFWKYAMGWYRQAPGKERELVAAITASGARTYYADSVKGRFTISRDNAKNTVYLQLNSLKPEDTAVYYCNAGSVSDRQMDYWGQGTQVTVSS”, “low polyreactivity”; under “QVQLVESGGGLVQAGGSLRLSCAASGLILSSNAMGWYRQAPGKERELVATISWSGDSTYYADSVKGRFTISRDNAKNTVYLQMNSLKPEDTAVYDCNADHFQWGAGYDYWGQGTQVTVSS”, “low polyreactivity”. As to “QVQLVESGGGLVQAGGSLRLSCAASGSIFWSNAMGWYRPATGKERELVAAISSGGSTYADSVKGRFTISRDNAKNTVYLQMNSLKPVDTAVYYCNADVLYGDYYRGGYWGQGTQVTVSS”, the “polyreactivity (PSR sort gate)” value is recorded as “low polyreactivity”.

Consider “QVQLVESGGGLVQAGGSLRLSCAASGNILFSYAMGWYRQAPRKERELVAAISSSGGSTYYADSVKGRFTISRDNAKNNVYLQMNSLKPEDTAVYYCARYSFYKYDYWGQGTQVTVSS”, for which the “polyreactivity (PSR sort gate)” value is “high polyreactivity”.

In the case of “QVHLVESGGGLVQAGVSLRLSCAAYVRIFGRNAMGWYRQAPGKEREFVAAITYSGTSTYYADSVKGRFTISRDNAKNTVYLQMNSLKREDTAVYYCNAQYLPSHVYGRYSSTFNYWGQGTQLTVSS”, the “polyreactivity (PSR sort gate)” value is “low polyreactivity”.

For “QVQLVESGGGLVQAGGSLRLSCAASGIIFDSYAMGWYRQAPGKERELVAAITSRGGRTYYADSVKGRFTISRDNAKNTVSLQMNSLKPEDTAVYYCAARAKYDRRTDGTSGYDYWGQGTQVTVSS”, the “polyreactivity (PSR sort gate)” value was “low polyreactivity”. The result for “QVQLVESGGGLVQAGGSLRLSCAASGLIFSDYAMGWYRQEPGKERELVAAIRSGGRTYYADSVKGRFTISRDNAKNTVYLQMNSLKPEDTAVYYCNKLYRRYPVPREYDYWGQGTQVTVSS” reads “high polyreactivity”; that for “QVQLVESGGGLVQAGGSLRLSCAASGLIFWHYAMGWYIQAPGKERELVARISYGGGSTYYADSVKGRFTISRDNAKNTVYLQMISLKPEDTSVYYCNAKYYSVSQYYWGQGTQVTVSS”, “high polyreactivity”; that for “QVQLVESGGGLVQAGGSLRLSCAASGSTFYSYAMGWYRQAPGKERELVAAISWDGGLTYYADSVKGRFTISRDTAKNTVYLQMNSLKPEDTAVYYCAAAYPTYRHYYWGQGTQVTVSS”, “low polyreactivity”.

In the case of “QVQLVESGGGLVQAGGSLRLSCAASGRIFYGYAMGWYRQAPGKERELVAAISWRGGRTYYADSVKGRFTISRDNAKNTVYLQMNSLKPEDTAVYYCNKDFPPQGQLRNMYYWGQGTQVTVSS”, the “polyreactivity (PSR sort gate)” value is “high polyreactivity”.

The values above are taken from the nanobody polyreactivity screen of Harvey et al. (2022).
